This is an account of results in patent publication US12365905B2, “Host cells and methods for reducing isoprenoid precursors and isoprenoids by geranylgeranyl reductase” (The Regents of the University of California, priority 2018, dated 2025).

Holding throughout (format): biochemical
Data set [1] can be described thus: In vitro GGR reduction of geranylgeranyl pyrophosphate, products detected by LC-MS-TOF. On the set-up: key to GGPP (C20) reduction: +: activity detected; ++: activity higher than for other GGRs. On the procedure:
(§1) Validation of enzymatic substrate reduction was determined by incubating all assays in triplicate for each respective substrate and putative GGR for 1 hour at 37° C. All assays were performed at pH 7.4 in 100 mM sodium phosphate buffer containing 30-150 μM enzyme, 200 µM FAD (Sigma-Aldrich), and 65 mM sodium dithionite (Sigma-Aldrich). Standard assays for alcohol reduction were incubated with 100 μM enzyme and 500 μM (E,E)-farnesol (Alfa-Aesar) or (E,E,E)-geranylgeraniol (Sigma-Aldrich); pyrophosphate assays were performed at 100 μM FPP or GGPP (Sigma-Aldrich). Alcohol-based assays were quenched by liquid extraction using a 3:1 (v:v) LC-grade ethyl acetate solution containing 100 μM dodecanol as a GC internal standard (Sigma-Aldrich). The organic layer was extracted and stored at −20° C. until analysis by GC-MS. Pyrophosphate assays were similarly quenched using LC-grade n-butanol (Sigma-Aldrich) 1:1 (v:v) and centrifuged at 15000×g for 2 minutes. The n-butanol layer was dried for 45 minutes at ambient temperature using a Labconco speedvac, reconstituted in 25 µL of a 62:38 (v:v) acetonitrile/50 mM ammonium carbonate solution, and stored at −20° C. until further analysis by LC-MS-TOF [33]. Characterization of enzymatic hydrolysis of isoprenoid pyrophosphate substrates by SaGGR and PfGGR was performed by quenching the enzyme reactions at 0, 2, 5, 10, 20, 40, and 60 minutes of incubation.
The separation of FPP, GGPP, and their reduced forms was conducted on a ZIC-pHILIC column (150 mm length, 2.1 mm internal diameter, and 5 μm particle size, Merck) using an Agilent Technologies 1200 Series Rapid Resolution high performance liquid chromatography (HPLC) system. Solvents for HPLC were purchased from HoneyWell and were of HPLC grade or higher. The mobile phases used for this analysis were A) 50 mM ammonium carbonate (Fluka, 30-33% NH3 basis) in water and B) acetonitrile. Analytes were eluted isocratically with a mobile phase composition of 62% B at a flow rate of 0.2 mL/min. The total run time of the method was 6.5 min. The temperature of the sample tray was maintained at 6° C. using an Agilent FC/ALS Thermostat. […]
(§2) Data acquisition and processing were performed by the Agilent Technologies MassHunter software package. Product formation was determined using extracted ion chromatogram abundances (±0.02 Da) for each molecule's [M-H]^− mass (Table 4). […] Relative reductase reactivity among GGRs was determined by measuring the fractional abundance of singly-, doubly-, or triply-reduced products to the total ion abundance present for intact and hydrolyzed moieties. Integrated areas for hydrolyzed monophosphate products were assumed to have the same ionization intensities as their pyrophosphate counterparts, as determined by their standard curves measured from 0-120 μM (FIG. 15).

Data set [2] can be described thus: In vitro GGR reduction of geranylgeraniol, products analysed by GC-MS. On the set-up: key to Geranylgeraniol (C20) reduction: +: activity detected; ++: activity higher than for other GGRs. The method, then: as §1
(§3) Product identification and quantification of farnesol and hydrofarnesol derivatives were modified from previous detection methods. All GC-MS analyses were determined using an Agilent 6890 gas chromatography instrument coupled to an Agilent 5973 mass selective detector. 1 µL of extracted samples were injected in splitless mode onto an Agilent CycloSil-B column, with helium used as a carrier gas flowing at 1.0 mL/min. Following injection, the oven was held at 50° C. for 30 seconds, then increased to 175° C. at 35° C./min. Farnesol and hydrofarnesols were resolved by increasing the temperature 4° C./min up to 200° C., then increased to 300° C. at a rate of 35° C./min where it was held for 1.5 minutes. Geranylgeraniol and its hydrogenated derivatives were analyzed using the same injection method. After injection, the oven was held at 50° C. for 30 seconds then increased to 235° C. at 35° C./min. Hydrogeranylgeraniols were separated by increasing the oven temperature 4° C./min to 250° C., then ramped to 300° C. at a rate of 35° C./min where it was held for 1.5 minutes.
(§4) The EI-MS detection was initiated after a solvent delay of 5.0 minutes. Detection and classification of hydrofarnesols was performed in scan mode at 9.8 scans/sec ranging from 50-250 m/z in positive ion mode. For geranylgeraniol, the same scan parameters were implemented except for the mass range, which was expanded to 50-300 m/z in positive ion mode. The electron multiplier voltage was set to a gain factor of 1, with the MS ion source and quadrupole set to 230° C. and 150° C., respectively.
(§5) Total ion chromatograms (TIC) were integrated using Agilent Technologies Masshunter software, version 6. Product formation was determined from the TIC area for C15 or C20 alcohol products eluting at each respective retention time. Absolute product concentrations were determined from standard curves (0-200 μM) of either farnesol or geranylgeraniol assuming the TIC area of each reduced product ionizes with an equivalent efficiency to that of the unreduced substrate (FIG. 10). Subsequently, enzyme turnover numbers for isoprenoid reduction were calculated as the total number of nanomoles of prenyl units reduced per milligram of enzyme in 1 hr.

Data set [3] is described as follows: In vitro GGR reduction of farnesol, products analysed by GC-MS. On the set-up: key to Farnesol (C15) reduction / Farnesol (C15)-full reduction: +: activity detected; ++: activity higher than for other GGRs. The method, then: as §1, with “triplicate for each respective substrate and putative GGR for 1 hour at 37° C. All assays were performed at pH 7.4 in 100 mM sodium phosphate” left out
as §3, §4, §5

Data set [4] in a line: In vitro GGR reduction of farnesyl pyrophosphate, products detected by LC-MS-TOF. On the set-up: key to FPP (C15) reduction: +: activity detected; ++: activity higher than for other GGRs. The method, then:
as §1, with “[…] […]” for “Validation of enzymatic substrate reduction was determined by incubating all assays in triplicate for each respective substrate and putative GGR for 1 hour at 37° C. All assays were performed at pH 7.4 in 100 mM sodium phosphate buffer containing 30-150 μM enzyme, 200 µM FAD (Sigma-Aldrich), and 65 mM sodium dithionite (Sigma-Aldrich).”
The separation of FPP, GGPP, and their reduced forms was conducted on a ZIC-pHILIC column (150 mm length, 2.1 mm internal diameter, and 5 μm particle size, Merck) using an Agilent Technologies 1200 Series Rapid Resolution high performance liquid chromatography (HPLC) system. Solvents for HPLC were purchased from HoneyWell and were of HPLC grade or higher. The mobile phases used for this analysis were A) 50 mM ammonium carbonate (Fluka, 30-33% NH3 basis) in water and B) acetonitrile. Analytes were eluted isocratically with a mobile phase composition of 62% B at a flow rate of 0.2 mL/min. The total run time of the method was 6.5 min. The temperature of the sample tray was maintained at 6° C. using an Agilent FC/ALS Thermostat. The column compartment was set to 40° C. A sample injection volume of 2 μL was used throughout.
The HPLC system was coupled to an Agilent Technologies 6210 time-of-flight mass spectrometer (LC-TOF-MS) by a ⅓post-column split. Contact between both instrument set-ups was established using a LAN card in order to trigger the MS into operation upon the initiation of a run cycle from the MassHunter workstation (Agilent Technologies). Electrospray ionization (ESI) was conducted in the negative ion mode and a capillary voltage of −3500 V was utilized. MS experiments were carried out in full scan mode, at 0.86 spectra/second for the detection of [M-H]^− ions. The instrument was tuned for a range of 50-1700 m/z. Prior to LC-TOF-MS analysis, the TOF-MS was calibrated via an ESI-L low concentration tuning mix (Agilent Technologies).
as §2

Data set [5] is described as follows: GGR reduction of geranyl pyrophosphate. On the set-up: key to GPP (C10) reduction: +: activity detected; ++: activity higher than for other GGRs.
Data set [6] can be described thus: GGR reduction of geraniol. Particulars: FIG. 1A legend, conditions not stated.
Data set [7] is described as follows: GGR-mediated hydrolysis of prenyl pyrophosphates to monophosphates, time course by LC-MS-TOF. Particulars: standard assay as a function of time, 0-60 minutes. The method, then: Validation of enzymatic substrate reduction was determined by incubating all assays in triplicate for each respective substrate and putative GGR for 1 hour at 37° C. All assays were performed at pH 7.4 in 100 mM sodium phosphate buffer containing 30-150 μM enzyme, 200 µM FAD (Sigma-Aldrich), and 65 mM sodium dithionite (Sigma-Aldrich). Standard assays for alcohol reduction were incubated with 100 μM enzyme and 500 μM (E,E)-farnesol (Alfa-Aesar) or (E,E,E)-geranylgeraniol (Sigma-Aldrich); pyrophosphate assays were performed at 100 μM FPP or GGPP (Sigma-Aldrich). […]
as §2

Setting [8] is: 1 hr, 37° C., pH 7.4, error in brackets.
Setting [9] is: FIG. 1A legend, conditions not stated.

B1: Ma1-GGR: geranylgeranyl reductase from Methanosarcina acetivorans #1, InterPro Q8TQQ6 (protein, UniProt Q8TQQ6 1-407, looked up)
Digeranylgeranylglycerophospho …: MKDIYDVLVIGAGPAGSIAAKTAAEKGLDVLLIEKRQEIGDPVRCAEGVNKEYLKKHVEIDNSWICADLKGSRIYSPNGTKVEMAEEISGGEVGYVLERKIFDRALAEHAAKAGAEVRVKTRATGLIIEDDFVKGARLMNLGKEYEVRAKIVIGADGVESKVGRWAGIDTSLKPIDIETCAQYLIAGADIDPEYCEFYIGNEIAPGGYVWIFPKGEGKANVGVGILGNRTGKFKPRPVDYLNNFVEKKFPNAKIVEMVFGGVPVSGSIEKTSVNGLMLVGDAARQSDPITGGGILNAMDAGKIAGEAAYEAISSGDVSLEKLEEVYEKRWRETTGHDIDMSLIVKNCFINLKDEDLDSLADSLKEVKFESMRLFDLLQALFKANKKLLWDLRVLFKDAAKEVMKNRT
As for B1, in data set [1], the “GGPP (C20) reduction” value is reported as “+”. In addition, the “Reduction of GGPP (in words)” value in data set [1] (standard assay conditions) is recorded as “found to reduce GGPP”.

B2: Sa-GGR: geranylgeranyl reductase from Sulfolobus acidocaldarius, InterPro M1I414, wild type (protein, listed as Sulfolobus acidocaldarius)
chain: MKELKYDVLIIGGGFAGSSAAYQLSRRGLKILLVDSKPWNRIGDKPCGDAVSKAHFDKLGMPYPKGEELENKINGIKLYSPDMQTVWTVNGEGFELNAPLYNQRVLKEAQDRGVEIWDLTTAMKPIFEDGYVKGAVLFNRRTNEELTVYSKVVVEATGYSRSFRSKLPPELPITEDLDDKDADVAYREVLLTKEDIEDHDYLRIFIDQETSPGGYWWYFPKGKNKVNVGLGIQGGMGYPSIHEYYKKYLDKYAPDVDKSKLLVKGGALVPTRRPLYTMAWNGIIVIGDSGFTVNPVHGGGKGSAMISGYCAAKAILSAFETGDFSASGLWDMNICYVNEYGAKQASLDIFRRFLQKLSNDDINYGMKKKIIKEEDLLEASEKGDLHLSVADKAMRVISGLGRPSLLFKLKAVAESMKKIKELYLNYPRSPSSLGSWRREVDNVLTEFNKSLS
As for B2, the “Geranylgeraniol (C20) reduction” value in data set [2] is recorded as “+”. Further, in data set [2] (1 hour 37° C., pH 7.4), the “Reduced products formed from geranylgeraniol” value is “H2-, H4-, H6- and H8-geranylgeraniol”. In data set [2] (setting [8]), the “Specific activity of enzymatic GGR reduction on geranylgeraniol (GGOH)” value is 50 (10) nmol terpene units reduced mg^−1 enzyme hr^−1. In addition, the “Product of complete reduction of geranylgeraniol” value in data set [2] (setting [9]) was “H8-GGOH”. The “Enzymatic reduction of geranylgeraniol (in words)” value in data set [2] (standard assay, 1 hr, 37° C., pH 7.4) is “enzymatically reduce geranylgeraniol”. Also, the “Specific activity toward GGOH” value in data set [2] (standard assay, stated as lower bound) was “at least 50±10 nmol terpenoids reduced per milligram of enzyme per hour”. In addition, in data set [3], the “Farnesol (C15) reduction” value is listed as “+” and the “Farnesol (C15)-full reduction” value was “+”. Moreover, the “Formation of fully reduced farnesol” value in data set [3] (50° C. and pH 5.5) is recorded as “generated a modest amount of H6-FOH”. In addition, the “Reduced products formed from farnesol” value in data set [3] (1 hour 37° C., pH 7.4) was “H2- and H4-farnesol”. Further, the “Reduction of FOH to H2-FOH or H4-FOH (in words)” value in data set [3] (1 hr incubation under standard assay conditions) is given as “found to reduce FOH”. Also, in data set [3] (setting [8]), the “Specific activity of enzymatic GGR reduction on farnesol (FOH)” value is listed as 8 (1) nmol terpene units reduced mg^−1 enzyme hr^−1. Moreover, the “Product of complete reduction of farnesol” value in data set [3] (setting [9]) was “H6-FOH”. In data set [4], the “FPP (C15) reduction” value was “+”. In data set [4] (setting [9]), the “Product of FPP reduction” value is on record as “H4-FPP”. Moreover, in data set [4] (SaGGR variants, pH 5.5, 50° C., kinetic time course), the “Preferential / final product of FPP reduction” value is given as “H4-FPP”. For the same molecule, the FPP consumption result in data set [4] (after two hours of incubation at pH 5.5, 50° C.) is given as “fully consume FPP”. Besides, the “Reduction of FPP (in words)” value in data set [4] (standard assay conditions) was “could reduce FPP”. Besides, the “GGPP (C20) reduction” value in data set [1] is given as “+”. Besides, in data set [1] (setting [9]), the “Product of GGPP reduction” value is reported as “H6-GGPP”. The “GPP (C10) reduction” value in data set [5] is “+”. Moreover, the “Product of GPP reduction” value in data set [5] (setting [9]) was “H2-GPP”. The “Product of complete reduction of geraniol” value in data set [6] is reported as “H4-GOH”. Besides, in data set [7], the “Rate of first-order substrate hydrolysis, comparison” value is reported as “occurs more quickly in SaGGR than for PfGGR”.
